Results reported in PMC10821397, “A New Approach for Preparing Stable High-Concentration Peptide Nanoparticle Formulations” (Pharmaceuticals, 2023).

Experiments:
Type in all cases: physicochemical
[1] = Nanomilling screen (resonant acoustic milling), particle size by dynamic light scattering; conditions: DLS; for Average Radius: nanomilling screen, milled at 100 mg/mL in water, 50 G, 2 h, average of 10 acquisitions, 25 °C, ± SD; for % Pd: normalized polydispersity, screen, 100 mg/mL
Protocol: A UV-Star clear, flat-bottom 96-well plate was used as a high-throughput mixing container, as described previously. […] Each well plate was sealed with a Thermo Fisher Scientific ALPS 50 V Manual Heat Sealer (Thermo Fisher Scientific Inc., Waltham, MA, USA). Each sealed well plate was then placed on a Resodyn LabRAM II Resonant Acoustic mixer (Resodyn Acoustic Mixers, Butte, MT, USA) and milled at 50 G acceleration for 2 h.
(§1) After milling, a 5 μL aliquot of the nanosuspension sample was taken and diluted in 995 μL of D.I. water for analysis using a Wyatt DynaProTM Plate Reader II (Waters Corporation, Santa Barbara, CA, USA) dynamic light scattering instrument. A 30 μL aliquot of the diluted suspension was dispensed into a Corning® low-volume black polystyrene 384-well plate for analysis. The particle size of each sample was reported as an average of 10 acquisitions with an acquisition time of 5 s at 25 °C. Autocorrelation curves were fitted using either the cumulants or regularization method, and the average particle radius and diameters D50 and D90 were obtained and reported along with their standard deviations. The normalized polydispersity (%Pd) was calculated as the polydispersity divided by the estimated hydrodynamic radius from the cumulants fit of the autocorrelation function multiplied by 100.

[2] = Scale-up nanosuspension, particle size by dynamic light scattering; conditions: for % Pd: normalized polydispersity, scale-up; for % Pd / Average Radius: 100 mg/mL, DLS; for Average Radius: scale-up batch, average of 10 acquisitions, 25 °C, ± SD
Protocol: A 4 mL clear glass vial was used as a scale-up container. […] The vial was then placed on a Resodyn LabRAM II Resonant Acoustic mixer and milled at 50 G acceleration for 2 h. The resulting nanosuspension was recovered by using a syringe equipped with an 18 G needle.
as §1

[3] = Particle size of nanosuspensions on storage (dynamic light scattering); conditions: DLS
Protocol: as §1

[4] = Physical stability (monomer content) by size-exclusion chromatography; conditions: both formulations (PVP K29-32/SDS, HPC-SL/SDS), 28 days, 4 °C, RT and 37 °C; no higher-order oligomers
Protocol: An Agilent 1290 Infinity II (Agilent Technologies, Santa Clara, CA, USA) was used for chromatographic analysis. Data were acquired and processed using Empower 3 software (Waters, Milford, MA, USA). For all three peptides (GNE-A, cyclosporin A, and insulin), separations were performed in an Xbridge BEH125 SEC column ([…], 7.8 × 150 mm) for physical stability analysis. Isocratic method was applied in which 80% of the 5 mM phosphate buffer at pH 7 in acetonitrile was used as the mobile phase. The injection volume was 8 μL and the column temperature was 30 °C.

[5] = 25% HPC-SL, 1% SDS (wt% to peptide)
[6] = 25% PVP K29-32, 1% SDS (wt% to peptide)
[7] = 25% Pluronic F127 (wt% to peptide)

## Insulin (recombinant human) [Insulin Monomer]
[1]; [5]
  Average Radius: 130 ± 4 nm
[1]; [6]
  Average Radius: 112 ± 2 nm
[1]; [7]
  Average Radius: 419 ± 24 nm
  % Pd: 14.6%
[1]; 25% Tween 80 (wt% to peptide)
  Average Radius: 903 ± 124 nm
  % Pd: Multimodal
[2]; both formulations (HPC-SL/SDS and PVP K29-32/SDS), screen and scale-up batch
  average radius of the nanoparticles: 110–130 nm
[2]; [5]
  % Pd: 33.6%
  Average Radius: 135 ± 14 nm
[2]; [6]
  % Pd: 19.9%
  Average Radius: 121 ± 5 nm
[3]; insulin nanosuspension with HPC-SL/SDS, 4 °C and room temperature, up to 1 month
  particle size on storage: some particle growth
[3]; insulin nanosuspension with HPC-SL/SDS, 37 °C, up to 1 month
  particle size on storage: significant aggregation
[3]; insulin nanosuspension with PVP K29-32/SDS, 28 days at 4 °C or room temperature
  particle size on storage: No significant particle size growth
[3]; insulin nanosuspension with PVP K29-32/SDS, up to a month at 37 °C
  particle size on storage: remained in the accepted nano-scale range
[4]
  insulin monomer concentration (SEC): remains quantitative
